{"source": "patent US6458760B1", "about": "“Method for treating tissue damaged from ischemia” (Henry Ford Health System, priority 1998, dated 2002)", "molecules": {"B1": {"name": "stefin A: large naturally occurring molecule (MW 15,000), cathepsin inhibitor, recombinant preparation, used as control (protein, UniProt P01040 1-98, looked up)", "Cystatin-A": "MIPGGLSEAKPATPEIQEIVDKVKPQLEEKTNETYGKLEAVQYKTQVVAGTNYYIKVRAGDNKYMHLKVFKSLPGQNEDLVLTGYQVDKNKDDELTGF"}}, "test_system": "rats with middle cerebral artery occlusion", "experiment": "Stefin A in rat stroke model, infarcted brain tissue volume", "type": "in vivo", "conditions": "compared to animals without inhibitor", "description": "The inventors have used a stroke model in rats, explained in more detail hereinbelow, to verify this. In this model, a nylon monofilament is advanced through the vasculature of anesthetized rats until it blocks the middle cerebral artery. The monofilament is left in place for two hours. Withdrawal of the monofilament initiates reperfusion of the ischemic tissue. The extent of damage is visualized seven days after the ischemic event by removing the brain of the animal and examining it in section.\nThe initial cathepsin inhibitor used by the inventors was a large naturally occurring molecule, stefin A (MW 15,000). In the stroke model, this molecule was administered intraventricularly in some studies prior to the occlusion and intravenously upon reperfusion in others.", "data": [{"molecule": "B1", "values": [{"measurement": "reduction in the volume of the infarcted brain tissue", "setting": "administered intravenously upon reperfusion", "result": "~40", "unit": "%"}, {"measurement": "reduction in the volume of the infarcted brain tissue", "setting": "administered intraventricularly prior to the occlusion", "result": "~40", "unit": "%"}]}]}
